According to patent publication US20250215104A1 (published 2025):

Molecular target: human suPAR (hsuPAR) recombinant protein (human, UniProt Q03405 23-303)
Test: BLI; avid

Chain of human suPAR (hsuPAR) recombinant protein (Q03405 23-303): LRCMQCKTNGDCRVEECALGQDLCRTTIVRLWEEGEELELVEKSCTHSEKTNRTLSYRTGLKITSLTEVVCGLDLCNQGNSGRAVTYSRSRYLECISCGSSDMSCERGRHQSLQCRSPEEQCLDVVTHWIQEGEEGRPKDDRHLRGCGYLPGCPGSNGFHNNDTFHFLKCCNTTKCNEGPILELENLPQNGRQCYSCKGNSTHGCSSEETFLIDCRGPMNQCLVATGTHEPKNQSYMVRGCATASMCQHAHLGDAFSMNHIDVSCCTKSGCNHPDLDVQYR

B1: WAb0014 (antibody, V domains shown)
VH: QVQLVQSGAEVKKPGASVKVSCKASGYTFTNYYMHWVRQAPGQGLEWMGWIDHESGSTIYAQKFQGRVTMTRDTSTSTVYMELSSLRSEDTAVYYCARGYDVDWFVYWGQGTLVTVSS
VL: DIQMTQSPSSLSASVGDRVTITCSARQSVSYMYWYQQKPGKAPKLLIYRTSNLASGVPSRFSGSGSGTDFTLTISSLQPEDFATYYCQQYHSYPPTFGGGTKVEIKR
**Q.** With B1 as the binder, how does the Kd read?
**A.** < 1 pM
